Test results: publication PMC10641520 (The Journal of Biological Chemistry, 2023)

Legend:
AUC [1] = molecular target: the molecule itself; assay: AUC
AUC [2] = molecular target: the molecule itself; assay: AUC; remark: listed apart in the source

B1: Acinetobacter baumannii TIR domain protein (AbTir-TIR^wt, aa134-269) (domain or fragment, UniProt A0A009IHW8 134-269, looked up)
chain: EYDLFISHASEDKEDFVRPLAETLQQLGVNVWYDEFTLKVGDSLRQKIDSGLRNSKYGTVVLSTDFIKKDWTNYELDGLVAREMNGHKMILPIWHKITKNDVLDYSPNLADKVALNTSVNSIEEIAHQLADVILNR
In the case of B1, the “stoichiometry N” value (AUC [1]) is reported as 2 and the Kd (AUC [2]) is reported as 1400 nM.
